The results in this text go back to the nanobody polyreactivity screen of Harvey et al. (2022).

A short description of this data set: yeast display, Sf9 membrane polyspecificity reagent, FACS + sequencing; frameworks hold sequencing errors. In a few lines: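 Nanobodies came from a synthetic yeast display library in Saccharomyces cerevisiae BJ5465, induced with galactose for 36–48 hours and stained for 1 hour at 4 °C with 10% biotinylated, detergent-solubilized Sf9 membrane reagent. Cells were enriched on streptavidin microbeads and then FACS-sorted, with low and high (top ~1%) gates set on anti-HA fluorescence for expression and streptavidin fluorescence for reagent binding. Each polyreactivity label reflects the gate a clone came from. Genes were amplified by colony PCR, sequenced by MiSeq 2 × 250 and filtered by CDR length.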
In the case of “QVQLVESGGGLVQAGGSLRLSCAATGGTFEFYTMGWYRQAPGKERELVAVINASGDSTYYADSVKGRFTISRDNAKNTVYLQMNSLKPEDTAVYYCAADNQGYTTKWRREYYYWGQGTQVTVSS”, the “polyreactivity (PSR sort gate)” value is on record as “low polyreactivity”.

For the sequence “QVQLVESGGVLVQAGGILRLSCAASGSIFYMYAMGWYRQAPGKERELVAAISRSGGRTYYADSVKGRFTISRDNAKNTVYLQMNSLKPEDTAVFYCAARDHYSTGGMKYWGQGTQVTVSS”, the “polyreactivity (PSR sort gate)” value is “high polyreactivity”.

For “QVQLVESGGGLVQAGGSLRLSCAASGSIFIVYARGWYRPAPGRERELVATITSGGSTNYADSVKGRFTISRDNAKKTVYLQMNSLKPEDTAVYYCAKDLYYGDYYYWGLGTQVTVSS”, the “polyreactivity (PSR sort gate)” value is reported as “low polyreactivity”.

As for “QVQLVESGGGLVQAGGSLRLSCAASGNTFYKYAMGWYRQAPGKERELVADISWSGGSTYYADSVKGRFTISRDNAKNTVYLQMNSLKPEDTAVYYCNADTPVWDGHAYPVDYWGQGTQVTVSS”, the “polyreactivity (PSR sort gate)” value is given as “low polyreactivity”.

In the case of “QVLLVESGGCLVQAGGILRLSCAASGIIFRSNVMGWYRQEPGKASELVAAISTGGGRTYYADSVKGRFTISRDNAKNTVYLQMNSLKPEDTAVYYCATRDIGKQWTRYYYWGQGTQVTVSS”, the “polyreactivity (PSR sort gate)” value was “high polyreactivity”.

For the sequence “QVQLVESGGGFVQAGGSLRLSCAASGSNLGKNTMGWYRQAPGKERELVATISRSGGSTYYADSVKGRFTISRDNAKNTVYLQMNSLKPEDTAVYYCAARAIRSGYYRYDYWGQGTKVTVSS”, the “polyreactivity (PSR sort gate)” value is listed as “high polyreactivity”.

Regarding “QVQLVDSGGGLVQAGGSLRLSCAASGRPSVLMLMGWYRQAPGKERELVAAIDDSTDTTYYADSVKGRFTISRDNAKNTVYLQMNSLKPEDTAVYYCAAEEGYVKFSGSWSYGYDYWGQGTQVTVSS”, the “polyreactivity (PSR sort gate)” value is listed as “high polyreactivity”.

Take “QVQLVESGGGFVQAGGSLRLSCAPSGRIFLRNDMGWYRQAPGKEREWVAGISWRGGRTYYADAVKGRFTISRDNAKNTVYLQMNSLKPEDTAVYYCNADKDETSGGKYDSWGQGTQVTVSS”: the “polyreactivity (PSR sort gate)” value was “low polyreactivity”.

Consider “QDQLVESGGGLVQAGGSLRLSCAASGFILKPNAMGWYRQAPGKERELVAAISWSSGSPDYADSVKGRFTISRDNAKNTVYLQMNSLKPEDTAVYYCAADYFVYPDDWYDYWGQGTQVTVSS”, for which the “polyreactivity (PSR sort gate)” value was “low polyreactivity”.

Turning to “QVQLVESGGGLVQAGGSLRLSCAASGSTFGRYVMGWYRQAPGKEWELVAAISGSGGSTYYADSVKGRFTISRDNAKNTVDLQMNSLKPEDTAVYYCAAGGPTYELYRRGYWGQGTQVTVSS”, the “polyreactivity (PSR sort gate)” value was “high polyreactivity”.

With “QVQLVESGGGLVQAGGSLRLICAASGRTSYIDAMGWYREAPGKERELVARIRSGGSTNYADSVKGRFTISRDNAKNPVYVQMNSLKPEDTAVYYCNADFAFSRKYQANPYSAYDYWGQGTQVTVSS”, the “polyreactivity (PSR sort gate)” value is recorded as “high polyreactivity”.

As to “QVQLVESGGGLVQEGGSLRLSCAASGSTFRRYAMGWYRQAPGKERELVASISRSGGSTYYADSVKGRFTISRDNAKNTVYLQMNSLKSEDTAVYYCSKKPYKSAYDYSTAYDYWGQGTLVTVSS”, the “polyreactivity (PSR sort gate)” value was “high polyreactivity”.

As for “QVQLVDSGGGVVQAGGSLRLSCAASGFIFHRYAMGWYRPAPGKERELVASITRSGGSTYYADSVKGRFTISRDNAKNTVYLQMNSLKPEDTAVYYCAAQLPAYYKYPRHDYWGQGTQVTVSS”, the “polyreactivity (PSR sort gate)” value is reported as “high polyreactivity”.

As for “QVQLVESGGGLVQAGGSLRLSCAASGSSFYDYAMVWYRQAPGKERELVAAINGNGDSTYYADSVKGRFTISRDNAKYTVYLQMNSLKPEDNAVYYCAAYLGWGYDYWGQGTQVTVSS”, the “polyreactivity (PSR sort gate)” value is recorded as “low polyreactivity”.

For “QVQLEESGGGLVQAGGSLRLSCAASGSIFGQYAMGWYRQAPGKERELVAAISTRGGSTRYADSVKGRFTISRDNAKNTVYLQMNSLTPEGTAVYYCAARVPYIRHLAVDYWGQGTQVTVSS”, the “polyreactivity (PSR sort gate)” value is recorded as “high polyreactivity”.

On to “QVQLVESGGGLVQAGGSLRLSCAASGRILKWNAMGWYRQAPGKERELVAAISQSGGSTYYADSVKGRFTISRDNAKNTVYLQMNSLKPEDTAVYYCATSGDWWGFRYDYWGQGTQVTVSS”, for which the “polyreactivity (PSR sort gate)” value was “low polyreactivity”.

For the sequence “QVQLVESGGGLVQAGGSLRLSCAASGSIFGSYAMGWYRQAPGKERELVAAITSAGSTNYADSVKGRFTISRDNAKNTVYLQMNSLKPEDTAVYYCAVRPGFGRSLWYGYWGQGTQVTVSS”, the “polyreactivity (PSR sort gate)” value is listed as “low polyreactivity”.

For the sequence “QVQLVESGGGLVQAGGSLRLSCAASVFTFSRYAMGWYRQAPGKERELVAAITSRGGSTYYADSVKGRFTISRDNAKNTVYLQMNSLKPEDTAVYYCAASGRNRKDGLYEYYYWGQGTQVTVSS”, the “polyreactivity (PSR sort gate)” value is “high polyreactivity”.

On to “QVQLVESGGGLVQAGGSLRLSCAASGGTFRAYVMGWYRQAPGKERELVAAISRRGGSTYYADSVKGRFTISRDNAKNTVYLQMNSLKPEDTAVYYCNAPRLLLSYTPGLDRWPYGVYWGQGTQVTVSS”, for which the “polyreactivity (PSR sort gate)” value is listed as “high polyreactivity”.

Regarding “QVQLVESGGGLVQAGGSLRLSCAASGSIFRVYAMGWYRQAPGKEREFVAAISYSTGSTYADSVKGRFTISRDNAKNTVYLQMNSLKPEDTAVYYCNARFRYGSRDEYDYWGQGTQVTVSS”, the “polyreactivity (PSR sort gate)” value is on record as “low polyreactivity”.

In the case of “QVQLVESGGGLVQAGGSLRLSCAASGSIFHGYAMGWYRQAPGKERELVAAISKSGGRTYYADSVKGRFTISRDNAKNTVYLQMNSLKPEDTAVYYCAAPATYKYDYWGQGTQVTVSS”, the “polyreactivity (PSR sort gate)” value is listed as “high polyreactivity”.

In the case of “QVQLVESGGGLVQAGGSLRLSCAASGRIFLYYAMGWYRQAPGKERELVAAISRRGASTYYADSVKGRFTITRDNAKNTVYLQMNSLKPEDTAVYYCGSVPGKSGDYWGQGTQVTVSS”, the “polyreactivity (PSR sort gate)” value is “high polyreactivity”.

In the case of “QVQLVESGGGLVQAGGSLRLSCAASGSTINYNAMGWYRQAPGKERELVAAIDSGVSTNYADSVKGRFTISRDNAKNTVYFQMNSLKPEDTAVYYCNADPDYFDYWGQGTQVTVSS”, the “polyreactivity (PSR sort gate)” value is reported as “low polyreactivity”.

For the sequence “QVQLVESGGGLVQAGGSLRLSCAASGLTFGNYAMGWYRQAPGKERELVAAISWGGGITYYADSVKGRFTISRDNAKNTVYLQMNSLKPEDTAVYYCAADVYFKSTPEYLYDYWGQGTQVTVSS”, the “polyreactivity (PSR sort gate)” value is listed as “low polyreactivity”.

As to “QVQLVESGGGLVQAGGSLRLSCAASGFTFYSNAMGWYRQAPGKERELVAAITWRGGSTNYADSVKGRFTISRDNAKNTVYLHMNSLKPEETAVYYCAAVTYWFWPGMDYWGQGTEVTVSS”, the “polyreactivity (PSR sort gate)” value was “low polyreactivity”.

As for “QVQLVESGGGLVQAGGSLRLSCAASGRTFGYYAMVWYRQAPGKERELVAAISTSGGGTYYADSVKGRFTISRDNAKNTVYLQMNSLKPEDTAVYYCNRDSRVLEGDYWGQGTQVTVSS”, the “polyreactivity (PSR sort gate)” value is given as “low polyreactivity”.

Regarding “QVQLEDSGGGLVQAGGSLRLSSAASGIIFYPNAMGWYRQSPGKERELVAAITSDGSTYYADSVKGRFTISRDNAKNTVYLQMNSLKPEDTAVYYCDDWDDYGYDYWGQGTQVTVSS”, the “polyreactivity (PSR sort gate)” value is listed as “low polyreactivity”.

Turning to “HVQLVESGGGLVQAGGSLRLSCAASGRTFNVNAMGWYRQAPGKERELVAAIDFSDGRTYYADSVKGRFTISRDNAKNTVYLQMNSLKPEDTAVYYCARSFRVGNTWYDYWGQGTQVTVSS”, the “polyreactivity (PSR sort gate)” value is listed as “high polyreactivity”.

On to “QVQLVESGGGLVQAGGSLRLSCAASGIIFRGYAMGWYRLAPGKERELVAAINQDSGNTYYADSVKGRFTISRDNAKKTVYLQMNSLKPEDTAVYYCAASSRLNRWNYYAFDYWGQGTQVTVSS”, for which the “polyreactivity (PSR sort gate)” value is “high polyreactivity”.

On to “QGQLVESGGCLVQEGGSLRLSCAASGRIFLYYTMGWYRQAPGKERELVAAITRSGGSTYYADSVKGRFTISRDNAKNTVYLQMNSLQPVDTAVSYCNRAYVRYVPMNYWGQGTLVTVSS”, for which the “polyreactivity (PSR sort gate)” value is listed as “high polyreactivity”.

Consider “QVQLQESGGGLVQAGGSLRLSCAATGSIFYRLKMGWHRQAPGKERELVATIDPGSNTYYADSVKGSFTISRDNAKNTVYPQMYSLKPEDTAVYYCAVSAHWTIHYYYWGQGTQVTVSS”, for which the “polyreactivity (PSR sort gate)” value is “high polyreactivity”.

As for “QVQLVESGGGLVQAGGSLRLSCAASGSTFNYNAMGWYRQAPGKEREFVAAISRSGGSTSYADSVKGRFTLSRDNAKNTVYLQMNSLKPEDTAVYYCAAYYRKTGYDYWGQGTQVTVSS”, the “polyreactivity (PSR sort gate)” value is “high polyreactivity”.

On to “QVQLVESGGGLVQAGGSLRLSCAASGRTFTYYAMGWYRQAPGKVRELVAAITFRGGRTYYADSVKGRFTFSRDNPKNTVYLQMNSLKPEDTAVYYCAAVPLWSYGGNYWGQGTQVTVSS”, for which the “polyreactivity (PSR sort gate)” value is “high polyreactivity”.

With “QVQLVESGGGLVQAGGSLRLTCAASGFTFGVYAMGWYRQAPGKERELVAAIDDGTNTYYADSVKGRFTISRDNAKNTVYLQMNSLKPEDTAVYYCNADDPYYIAEQSWSESDYWGQGTQVTVSS”, the “polyreactivity (PSR sort gate)” value is “low polyreactivity”.

On to “QVQLVESGGGLVQAGGSLRLSCDASGNIFYPNAMGLYRQAPGKERELVAAISSSGGSTYYADSVKGRFTISRDNAKNTVYLQMNSLKPEDTAVYYFAKDRSYAYYLWPYPTGYDYWGQGTQVTVSS”, for which the “polyreactivity (PSR sort gate)” value is “low polyreactivity”.

“QVQLVESGGGLVQAGGSLRLSCAASGRIFDTYAMGWYRQAPGKERELVAAITRRGGSTYYADSVKGRFTISRDNAKNTVYLQMNSLKPEDTAVYYCAKSLVNRHYDYWGQGTQVTVSS”: the “polyreactivity (PSR sort gate)” value was “low polyreactivity”.

For the sequence “QVQLVESGGGLVQAGGSLRLSCAASGRTFRRSAMGWYRQAPGKEREFVAAISVSGDSTYADSVKGRFTISRDNAKNTVYLQMNSLKPEDTAVYYCAAVYWYCGWKVDYWGQGTQVTLSS”, the “polyreactivity (PSR sort gate)” value is “low polyreactivity”.

For “QVQLVESGGGLVQAGGSLRLSCAASGSTLTFNAMGWYRQAPWKERELVAAISWSDTDTYYADSVKGRFTISRDNAKNTVYLQMNSLKPEDTAVYYCAATLSAYEMDYWGQATQVTVSS”, the “polyreactivity (PSR sort gate)” value is “low polyreactivity”.

Consider “QVQLEESGGGLVQAGGSLRLSCAASGRLFYSNPMGWYREAPGKEREVVAAISSGASTYYADSVKGRFTISRDNAKNTVYLQMNSLKPEDTAVYYCAVYRPSSYDYGYWGQGTQVTVSS”, for which the “polyreactivity (PSR sort gate)” value was “low polyreactivity”.

“QVQLVESGGGLVQAGGSLRLSCAASGFTFARNVMGWYRQAPGKERELVAAITTSGGSTYYADSVKGRFTISRDNAKNTVYLQMKSLKPEDTAVYYCARRVYGYYIPYNYWGQGTQVTVSS”: the “polyreactivity (PSR sort gate)” value is “high polyreactivity”.

With “QVELVESAAGLVQAGASLRLSCAASGTTIKSYVMGWYRQPPGKETELVAAISSGDSTYYADSVKGRFTISRDNAKNTVYLQMNSLNPEDTAVYYCAADPCYSVEPWEDDYWGQGSQVTVSS”, the “polyreactivity (PSR sort gate)” value is listed as “low polyreactivity”.
